Measured values as given in the supplement of paper PMC10567573.
± gives the standard deviation.

Assay: protein stability index of a GFP-peptide fusion (GPS, HEK-293T) (PSI 1-6); higher = more stable
[1] = treatment: DMSO, c terminus: a fixed tail appended
[2] = treatment: MLN4924 1 uM, 8 h, c terminus: a fixed tail appended
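Also: 24-mer peptide tiles fused after GFP, lentivirally expressed, FACS-sorted into six equal bins by GFP/DsRed ratio, decoded by Illumina sequencing, PSI is the read-weighted mean bin number.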

| Sequence | protein stability index [1] | protein stability index [2] | protein stability index (treatment: DMSO, c terminus: native) | protein stability index (treatment: MLN4924 1 uM, 8 h, c terminus: native) |
| --- | --- | --- | --- | --- |
| GPPPGAPHTPQTPGQGGPASTPAQ [NR2F2] | 5.34 ± 0.18 | 5.34 ± 0.16 |  |  |
| GQFVSLDGAGKTPTLGGGFHVNLG [BRF1] | 2.96 ± 0.37 | 3.06 ± 0.11 |  |  |
| GRARATGGDLEEQQHAEGSPEPGT [DNAAF3] | 5.59 ± 0.3 | 5.54 ± 0.23 |  |  |
| GRRQRKSEKRRDPPNGPNLPMATV [WASL] | 4.7 ± 0.37 | 4.47 ± 0.13 |  |  |
| GSDSVIMTGAYNNFFRMFDRNTKR [PPP2R2C] | 3.22 ± 0.22 | 3.39 ± 0.36 |  |  |
| GSPGMIYSTRYGSPKRQLQFYRNL [KCNAB2] | 2.44 ± 0.55 | 3.1 ± 0.38 |  |  |
| GSSFSGRVFRVTFLMLAVSLTVPL [APMAP] | 3.06 ± 0.3 | 3.05 ± 0.35 |  |  |
| GTETHGLVQVTLLDTVELATYCVR [PTPRD] | 2.39 ± 0.22 | 2.55 ± 0.51 |  |  |
| GTSALWRHLRSAHRRELESSGAGS [ZBED3] | 3.78 ± 0.57 | 4.1 ± 0.25 |  |  |
| GTSHGAPPARGPRMSYGGSTCHAY [RBMY1A1] | 3.79 ± 0.22 | 3.77 ± 0.21 |  |  |
| GTVIGVTSCIVIILIIISVIVQIK [NETO1] | 3.16 ± 0.34 | 3.02 ± 0.36 |  |  |
| GVPNASVIMQVPERIVVAGNNEDV [MFF] | 4.68 ± 0.72 | 4.35 ± 0.31 |  |  |
| GVQREAQRIALRLGNGNDKKEMNK [KMT2E] | 4.8 ± 0.26 | 4.78 ± 0.28 |  |  |
| GVVVEDGVCIRRCTVLRDARIRSH [GMPPB] | 2.83 ± 0.19 | 2.75 ± 0.33 |  |  |
| GVWAVIISHQQCWASTSPGTDLPL [TRIM15] | 2.75 ± 0.97 | 2.67 ± 0.18 |  |  |
| GVWHQMGTDGYMPRELASMSLVLH [KLHDC10] | 2.08 ± 0.21 | 2.06 ± 0.27 |  |  |
| HAPQISYTGPSSSGRFAGREWYYG [NCK2] | 2.52 ± 0.17 | 2.8 ± 0.4 |  |  |
| HCRENAHDKIRPISSIGQVQSYME [SPACA9] | 3.44 ± 0.22 | 3.29 ± 0.26 |  |  |
| HDFFLQGFTPDRLSSSCCHTVPDF [PLK2] | 2.71 ± 0.23 | 2.73 ± 0.24 |  |  |
| HDFIEHILRKLPQQREKLSLIRKH [CCND2] | 2.3 ± 0.1 | 2.45 ± 0.25 |  |  |
| HFRGVSLNLTRKLAQQLCTALLFL [DYRK1B] | 2.04 ± 0.4 | 2.15 ± 0.23 |  |  |
| HFSQSLTVIHDFLFSLKESPEKFQ [FAF2] | 2.06 ± 0.23 | 2.44 ± 0.26 |  |  |

| Sequence | protein stability index [1] | protein stability index [2] | protein stability index (treatment: DMSO, c terminus: native) | protein stability index (treatment: MLN4924 1 uM, 8 h, c terminus: native) |
| --- | --- | --- | --- | --- |
| HIFPASRWEPYDPEKKWDKYTIR [FAM50A] |  |  | 2.82 ± 0.45 | 3.15 ± 0.51 |
| HILAAEQLSRDSTLGGKAFHITND [NSDHL] | 3.39 ± 0.1 | 3.49 ± 0.28 |  |  |
| HLQLLGAVCMFLASKLKETSPLTA [CCND2] | 2.48 ± 0.34 | 2.36 ± 0.25 |  |  |
| HLSRQKIDPLLYMTEWFMCAFSRT [TBC1D10A] | 2.8 ± 0.31 | 2.67 ± 0.55 |  |  |
| HMVKISGGPHISYPPLHEWVLREG [MAGEA3] | 2.29 ± 0.34 | 2.43 ± 0.35 |  |  |
| HNISHMSMDIARGLMVTCGTDRIV [WDFY1] | 2.26 ± 0.16 | 2.27 ± 0.15 |  |  |
| HNIVHVHFDATRGWLLTSGTDKVI [WDFY2] | 2.26 ± 0.45 | 2.25 ± 0.15 |  |  |
| HNLIEQVSLGLGQPWHAVMDIESL [FBXO33] | 2.59 ± 0.52 | 2.48 ± 0.16 |  |  |
| HRELLRLESRIRDVHELFLQMAVL [STX11] | 2.49 ± 0.33 | 2.4 ± 0.28 |  |  |
| HRTRLQDLRVLVSNASEDTRRLRL [SCARA5] | 3.29 ± 0.11 | 3.57 ± 0.15 |  |  |
| HSDHSSEMSLPEVQKDKYPEEFSL [SPATS1] | 5.3 ± 0.29 | 5.26 ± 0.29 |  |  |
| HSLDLNISEKLTLLPTLYEIHSKT [RNF180] | 2.34 ± 0.26 | 2.46 ± 0.42 |  |  |
| HSVFEFLAFKNDIQFWNSRQSLEG [CLPTM1] | 2.03 ± 0.17 | 2.13 ± 0.28 |  |  |
| HVQNQVDEVIDVMQENITKVIERG [VAMP4] | 3.95 ± 0.2 | 4.13 ± 0.52 |  |  |
| IAILLYKSKPDRKRAESDSRKSSI [PTPRD] | 1.75 ± 0.23 | 1.92 ± 0.44 |  |  |
| IAMAVYTYLRLIVDHHGTAQLQAL [INTS3] | 3.35 ± 0.51 | 3.17 ± 0.14 |  |  |
| ICQGDGSSCTHVTGNYRKGNAHLG [ADAMTSL2] | 3.74 ± 0.33 | 3.92 ± 0.26 |  |  |
| IDAIYSVIDDAKQYVYIAVMDYLP [PLD5] | 3.55 ± 0.11 | 3.73 ± 0.42 |  |  |
| IDKEIELHRILHHKHVVQFYHYFE [PLK2] | 2.12 ± 0.29 | 2.18 ± 0.38 |  |  |
| IDKGDESWVTDMCKVGASSDPCGQ [PNLIPRP1] | 4.52 ± 0.48 | 4.66 ± 0.36 |  |  |
| IDRMFPEMSIHLSRPNGTSAMLLV [MED27] | 2.65 ± 0.71 | 2.75 ± 0.52 |  |  |
| IDSHLLLSVLPQLEFKLKSNDNEE [PDS5B] | 3.32 ± 0.27 | 3.09 ± 0.096 |  |  |

| Sequence | protein stability index [1] | protein stability index [2] | protein stability index (treatment: DMSO, c terminus: native) | protein stability index (treatment: MLN4924 1 uM, 8 h, c terminus: native) |
| --- | --- | --- | --- | --- |
| IDYGANVNQPNNNGFTPLHFAAAS [ANKRD44] | 3.1 ± 0.19 | 3 ± 0.26 |  |  |
| IELQAQHSMRNSLESTLAETEARY [KRT36] | 4.38 ± 0.15 | 4.23 ± 0.23 |  |  |
| IESAHRSRIKVLETSYQQREERLR [FBF1] | 3.85 ± 0.15 | 3.82 ± 0.33 |  |  |
| IEVNGENVEDASHEEVVEKVKKSG [PDZK1] | 5.63 ± 0.16 | 5.34 ± 0.38 |  |  |
| IFQEKHVNLLHIESRKSKRRNSEF [TPH1] | 3.06 ± 0.25 | 3.27 ± 0.28 |  |  |
| IFQMVIICLMCVHSLERAGSKQYS [SMG5] | 3.21 ± 0.28 | 3.27 ± 0.48 |  |  |
| IGKLLYLEDFFVMSDYRGFGIGSE [SAT1] | 2.85 ± 0.33 | 2.9 ± 0.81 |  |  |
| IHSREKRGDSVKVENPSTASHSLS [ZNF649] | 4.97 ± 0.26 | 5.22 ± 0.15 |  |  |
| IHTGIKPHQCSECGRAFSRKSLLV [ZNF649] | 2.56 ± 0.37 | 2.18 ± 0.4 |  |  |
| IIEVLSNALSKSSAPPITPECRQV [CHGB] | 2.29 ± 0.54 | 2.32 ± 0.22 |  |  |
| IKAWMDRYEEANNNQYSEGVQREA [KMT2E] | 3.77 ± 0.14 | 4.05 ± 0.28 |  |  |
| ILDTAGQAEFTAMRDQYMRAGEGF [RIT1] | 3.44 ± 0.29 | 3.6 ± 0.23 |  |  |
| ILKQLIADVTLDPETAHPNLVLSE [TRIM39] | 2.67 ± 0.085 | 2.81 ± 0.29 |  |  |
| ILTSQPGKEVVKQLEEGLKDTDLA [M1AP] | 5.05 ± 0.28 | 5.17 ± 0.17 |  |  |
| IPGKVIDEIYRVLRYVNSTRAPQR [FBXO28] | 2.2 ± 0.21 | 2.41 ± 0.28 |  |  |
| IPQQQGMRPPMPPHGQYGGHHQGM [ZNF207] | 3.71 ± 0.24 | 3.88 ± 0.11 |  |  |
| IQASAGVISKKAKVKVPQKTAGKE [ZNF75A] | 4.6 ± 0.16 | 4.79 ± 0.27 |  |  |
| IQKAYDELRLQSEAFKKHSLDLLS [CCDC89] | 2.68 ± 0.31 | 2.91 ± 0.23 |  |  |
| IRARELQNIYKCIMLKNISQDERL [IQUB] | 2.25 ± 0.57 | 2.15 ± 0.54 |  |  |
| IRGPAGNNDCRIYVGNLPPDIRTK [SRSF1] | 3.43 ± 0.25 | 3.38 ± 0.27 |  |  |
| IRNRGYNLIYRSTRHLKRLALMIQ [TMEM192] | 3.02 ± 0.16 | 2.97 ± 0.38 |  |  |
